According to the supplement of paper PMC12042874:
± gives the uncertainty stated by the source.

Experiment: amyloid nucleation score (Sup35N fusion, yeast selection) (log enrichment); library NNK1; higher = more nucleation; inactive = no reads after selection
Summary of the method: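 Output and input plasmid inserts were sequenced by Illumina after psi-negative yeast carrying Sup35N fused to peptides of 20 random codons had been induced 24 hours with 100 μM copper sulfate and grown 7 days at 30°C on medium lacking adenine and uracil. The nucleation score is the DiMSum log enrichment of output over input reads, centred on the mode score of non-aggregating sequences. Sequences with under 100 input reads were excluded.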

| Substance | amyloid nucleation score |
| --- | --- |
| YCCDDDGKFAWNECWDDTAR | 0.102 ± 0.21 |
| YCEYASVVLFGTELCFAWVY | 0.001 ± 0.73 |
| YCGKR | 1.12 ± 0.58 |
| YCGMCVYLISYMATFNCYYY | 3.54 ± 0.1 |
| YCKLDLPVTIEVKCSRGRMS | 5.17 ± 0.08 |
| YCKLDVAVFCVQYNMSMSEQ | 5.46 ± 0.079 |
| YCQSSWMSSFSTEFHKARLN | 0.43 ± 0.39 |
| YCSSVEVGVYLNVLICFSGL | 3.18 ± 0.062 |
| YCVSFLRSSLP | 3.39 ± 0.12 |
| YCWFFMLWEYTCWLVF | 0.17 ± 0.28 |
| YCYYYVNTCVV | 2.07 ± 0.53 |
| YDASGLWMCKERAEGFMRNV | -0.273 ± 0.95 |
| YDDTTMYRFWLHFKM | 0.638 ± 0.3 |
| YDKFPTLVMGAKRSGWG | -0.761 ± 0.78 |
| YDLGLIVSYDLLSVKEVPDR | 1.48 ± 0.55 |
| YDLLSLGDTTCRHSEILNRP | 0.924 ± 0.63 |
| YDLNYKDCSLRSVSSVGLQC | 0.099 ± 0.19 |
| YDNIWYKVNRAYEIRWLVGG | -0.383 ± 1.7 |
| YDQNWMRTIDRVNH | -0.292 ± 0.5 |
| YDRNCFGAPFNSVVQVTGKS | -0.94 ± 1 |
| YDRNRSMPSLLRP | inactive |
| YDSSLMGVWMCGCIARWEVS | -1.93 ± 2.7 |

| Substance | amyloid nucleation score |
| --- | --- |
| YDVVRSGFLGVDNITRLMPR | -0.27 ± 1.2 |
| YDYLDALHLTEASKSGCLVN | 0.423 ± 0.69 |
| YDYSLCANIMNRYHAK | 0.333 ± 0.29 |
| YEMSY | -1.38 ± 2.4 |
| YENSFGGHYSDESNTRRWEF | 1.44 ± 0.36 |
| YEQVNIRNG | 0.138 ± 0.87 |
| YERIPFLDSGTYGIYDWTAR | -0.372 ± 0.3 |
| YFDKKLGLS | inactive |
| YFGVFCQRMMVTALSPKNPT | -0.369 ± 0.32 |
| YFKSWTLNMCVGIKNK | 4.66 ± 0.056 |
| YFLICSLWPYVLPYCVCRFV | -0.728 ± 0.5 |
| YFLLLRFY | 0.094 ± 0.44 |
| YFLRHCCPD | -1.8 ± 2.4 |
| YFVGGF | -0.859 ± 0.91 |
| YFYIPFNEMNRWTYCCIRWW | -0.04 ± 0.36 |
| YGEHMLVDRCMRWVSSFYRG | 1.62 ± 0.3 |
| YGFVAYSDIVKAFGVIKSTG | -0.315 ± 0.31 |
| YGGNL | 0.169 ± 0.52 |
| YGLPFHVPACCAYLVVCKGR | -0.018 ± 0.54 |
| YGNFKVGFFVIRAWNWLNLI | 0.319 ± 1.2 |
| YGRVTDYCKCCVILRLSYWV | -0.993 ± 0.77 |
| YGSSAL | -0.419 ± 0.23 |

| Substance | amyloid nucleation score |
| --- | --- |
| YGTGMCHELCIDVTSWVMWM | -1.57 ± 0.79 |
| YGVNHRMYSKWHSVGAWMCR | 1.21 ± 0.66 |
| YHLTQYDTMLLQYMWNHDWD | -0.707 ± 0.89 |
| YHSSYVK | -1.36 ± 2.7 |
| YHVMD | inactive |
| YIDIVGSSW | 4.83 ± 0.07 |
| YIHLMRYARNLLPFRYCV | -0.641 ± 0.5 |
| YIIYWGAQLSILHENSPSFG | 0.354 ± 0.33 |
| YILVNMMGVWVVKVTHKVN | inactive |
| YILVYSSVTRRYHKSRSYVG | -0.09 ± 0.29 |
| YINVLVKAHGMMVPRRLKWV | 0.086 ± 0.32 |
| YIPICIRSYIKNAS | 0.413 ± 1.2 |
| YISNTRRLLQMIVCVMKSYG | inactive |
| YIVAVEHLLCSVRSYGHGMG | 0.724 ± 0.83 |
| YIWFC | 6.28 ± 0.071 |
| YIWSVYLLLCWHWCRMSCSG | 1.23 ± 0.6 |
| YIYEDFGG | -0.407 ± 0.57 |
| YKDYVDLERAFKLMPGQKLW | inactive |
| YKGVGPIVIFIQWVYITVNN | 4.1 ± 0.11 |
| YKGWYFFYVCFSKLSIGS | -0.305 ± 0.72 |
| YKLLYGYWLDWREGRNHKPK | 0.479 ± 0.32 |
